Assay results taken from patent publication US20140120578.

Columns and labels:
Assay in all cases: cell_activity
[1] = test system: FucT1_T01 TALEN right monomer (synthetic); conditions: yeast assay as pair, full target SEQ 66 (right half printed differently from Table 1), 37 C; 0.6 at 30 C
[2] = test system: FucT_T04 TALEN right monomer (synthetic); conditions: yeast assay as pair, targets SEQ 70 and 71 (same value), 37 C; 0.5 at 30 C
[3] = test system: XylT_T03 TALEN right monomer (synthetic)
[4] = test system: FucT2_T01 TALEN right monomer (synthetic); conditions: yeast assay as pair, full target SEQ 67, 37 C; 0.8 at 30 C
[5] = test system: XylT_T04 TALEN right monomer (synthetic)
[6] = test system: FucT1_T01 TALEN left monomer (synthetic); conditions: yeast assay as pair, full target SEQ 66 (right half printed with CTAAGC there vs AATAAGC in Table 1), 37 C; 0.6 at 30 C
[7] = test system: XylT_T04 TALEN left monomer (synthetic)
[8] = test system: FucT_T04 TALEN left monomer (synthetic); conditions: yeast assay as pair, targets SEQ 70 and 71 (same value), 37 C; 0.5 at 30 C
[9] = test system: FucT2_T02 TALEN left monomer (synthetic); conditions: for activity: N. benthamiana protoplasts
[10] = test system: FucT1_T02 TALEN left monomer (synthetic); conditions: for activity: N. benthamiana protoplasts
[11] = test system: XylT_T03 TALEN left monomer (synthetic)
[12] = test system: FucT2_T01 TALEN left monomer (synthetic); conditions: yeast assay as pair, full target SEQ 67, 37 C; 0.8 at 30 C
[13] = test system: FucT1_T02/FucT2_T02 TALEN right monomer (synthetic)
[14] = N. benthamiana protoplasts, pair, XylT1 locus, XylT2 63.9%
[15] = yeast assay as pair, full target SEQ 65, 37 C, 0.9 at 30 C

AATAAGCAATGGCGCAA (double strand) [FucT1_T01 right half-site (top strand as printed)]
activity (relative to I-SceI) [1]: 0.8

TTTCTGGTTCGACTCGA (double strand) [FucT_T04 right half-site (top strand as printed)]
activity (relative to I-SceI) [2]: 0.6

ATCACTCTCTATCTCTA (double strand) [XylT_T03 right half-site (top strand as printed)]
activity ([3]; N. benthamiana protoplasts, pair, XylT1 locus, XylT2 28.2%): 34.4 % NHEJ
activity (relative to I-SceI) ([3]; yeast assay as pair, full target SEQ 64, 37 C, 0.7 at 30 C): 0.9

GATAAACAATGGCGCAA (double strand) [FucT2_T01 right half-site (top strand as printed)]
activity (relative to I-SceI) [4]: 0.9

CTCTACTTCTCTTCCCA (double strand) [XylT_T04 right half-site (top strand as printed)]
activity [5, 14]: 73.8 % NHEJ
activity (relative to I-SceI) [5, 15]: 0.9

TGAGATCGGCGTCAAAT (double strand) [FucT1_T01 left half-site]
activity (relative to I-SceI) [6]: 0.8

TCTCTTCGCTCTCAACT (double strand) [XylT_T04 left half-site]
activity [7, 14]: 73.8 % NHEJ
activity (relative to I-SceI) [7, 15]: 0.9

TTGCCTCTGTTCGTTGC (double strand) [FucT_T04 left half-site]
activity (relative to I-SceI) [8]: 0.6

TTCAAACGCACCCGATA (double strand) [FucT2_T02 left half-site]
activity ([9]; pair FucT2_T02, FucT2 locus, control 0.14%): 45 % NHEJ
activity (relative to I-SceI) ([9]; yeast assay as pair, full target SEQ 69, 37 C, 0.7 at 30 C): 0.9
activity ([10]; pair FucT1_T02, FucT2 locus (1-bp mismatch), control 0.14%): 24.7 % NHEJ

TTCTTGTTTCTCTCTTC (double strand) [XylT_T03 left half-site]
activity ([11]; N. benthamiana protoplasts, pair, XylT1 locus, XylT2 28.2%, controls 0.36/0.06%): 34.4 % NHEJ
activity (relative to I-SceI) ([11]; yeast beta-galactosidase assay as pair, full target SEQ 64, 37 C, 0.7 at 30 C): 0.9

TGAGATCGTCGTCAAAT (double strand) [FucT2_T01 left half-site]
activity (relative to I-SceI) [12]: 0.9

TTCAAACGCACCCAATA (double strand) [FucT1_T02 left half-site]
activity ([9]; pair FucT2_T02, FucT1 locus (1-bp mismatch), control 0.79%): 46.5 % NHEJ
activity ([10]; pair FucT1_T02, FucT1 locus, control 0.79%): 39.2 % NHEJ
activity (relative to I-SceI) ([10]; yeast assay as pair, full target SEQ 68, 37 C, 0.7 at 30 C): 0.9

CTCTGTTCGTTGCCCTA (double strand) [FucT_T02 right half-site (top strand as printed)]
activity ([13]; N. benthamiana protoplasts, pair FucT1_T02 at FucT1, 24.7% at FucT2, with FucT2_T02 left monomer 46.5/45.0%): 39.2 % NHEJ
activity (relative to I-SceI) ([13]; yeast assay as pair with FucT1 or FucT2 left monomer, targets SEQ 68 and 69, 37 C, 0.7 at 30 C): 0.9
